The values below come from patent publication US20250186541A1, “DLL3 TARGETING PEPTIDES AND CONSTRUCTS THEREOF” (MARIANA ONCOLOGY INC., priority 2023, published 2025).

Numbered stars: 1 amine (or outer) side, 2 acyl side, 3 side chain; on linkers, the order of the positions; unused ones are H or OH. Bridge positions count the residues as written; N and C are the ends. Square brackets hold non-standard residues; d marks the D form. Side chains are listed from the residue outwards. * marks the point of attachment. Ala(piperidin-4-yl) = O=C([C@H](CC1CCN([*:3])CC1)N[*:1])[*:2]; DOTA = O=C(O)CN1CCN(CC(=O)O)CCN(CC(=O)*)CCN(CC(=O)O)CC1; Phe(4-CF3) = N[C@@H](Cc1ccc(C(F)(F)F)cc1)C(=O)O; Trp(7-aza) = N[C@@H](Cc1c[nH]c2ncccc12)C(=O)O; γGlu = O=C(O)[C@H](CCC(=O)[*:2])N[*:1]; 1Nal = N[C@@H](Cc1cccc2ccccc12)C(=O)O; hPhe = N[C@@H](CCc1ccccc1)C(=O)O; tBuAla = CC(C)(C)C[C@H](N)C(=O)O; 3Pal = N[C@@H](Cc1cccnc1)C(=O)O; 4Pal = N[C@@H](Cc1ccncc1)C(=O)O; NMeQ = CN[C@@H](CCC(N)=O)C(=O)O; Cha = N[C@@H](CC1CCCCC1)C(=O)O; NMeL = CN[C@@H](CC(C)C)C(=O)O; Cba = N[C@@H](CC1CCC1)C(=O)O; Chg = N[C@H](C(=O)O)C1CCCCC1; dNle = CCCC[C@@H](N)C(=O)O; Nle = CCCC[C@H](N)C(=O)O; dNMeA = CN[C@H](C)C(=O)O; Ahx = NCCCCCC(=O)O

The target in this assay is T1, Biotinylated human DLL3 (human, UniProt Q9NYJ7 27-492, biotinylated (site not stated)).
T1 construct: also called Delta-like ligand 3; Delta Like Canonical Notch Ligand 3
T1 sequence (looked up): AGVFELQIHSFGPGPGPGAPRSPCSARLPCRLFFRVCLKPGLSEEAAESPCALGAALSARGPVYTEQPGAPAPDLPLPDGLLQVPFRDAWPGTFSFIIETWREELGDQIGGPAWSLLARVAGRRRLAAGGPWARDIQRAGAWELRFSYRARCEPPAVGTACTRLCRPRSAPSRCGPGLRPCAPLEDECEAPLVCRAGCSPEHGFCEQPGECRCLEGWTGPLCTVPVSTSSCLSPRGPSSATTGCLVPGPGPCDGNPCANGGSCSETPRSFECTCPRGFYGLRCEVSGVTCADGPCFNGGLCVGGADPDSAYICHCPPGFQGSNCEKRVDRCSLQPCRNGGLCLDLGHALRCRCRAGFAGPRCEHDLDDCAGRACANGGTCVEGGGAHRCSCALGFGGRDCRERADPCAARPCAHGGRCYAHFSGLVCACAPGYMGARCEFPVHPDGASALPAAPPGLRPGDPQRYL
The assay can be described thus: SPR, biotin-hDLL3 on SA chip. (In general: Surface plasmon resonance follows binding to a sensor surface in real time, without labels.)

With Ac-SDCWLQWNCPFD-NH2 (disulfide 3-9) [Cpd #5], the binding result is “no binding”.

Consider {hexanoic acid}-SDCWLQWNCPFD[dK](DOTA)-NH2 (disulfide 3-9) [Cpd #75], for which the affinity, expressed as Kd, was 9.6 nM.

With Ac-MSDCW[Cha]QWNCPFD[dK](DOTA)-NH2 (disulfide 4-10) [Cpd #69], the dissociation constant Kd (in general, the concentration at which binding is half-saturated) is 16.4 nM.

Ac-SDCWLQWNCPFD[dK]([γGlu-DOTA])-NH2 (disulfide 3-9) [Cpd #88] returned a Kd of 9.7 nM.

B1: Cpd #96 (peptide)
peptide: Ac-[Chg]SK(DOTA)CWLQWNCPFD-NH2
modifications: disulfide 4-10
SMILES: CC(=O)N[C@H](C(=O)N[C@@H](CO)C(=O)N[C@@H](CCCCNC(=O)CN1CCN(CC(=O)O)CCN(CC(=O)O)CCN(CC(=O)O)CC1)C(=O)N[C@H]1CSSC[C@@H](C(=O)N2CCC[C@H]2C(=O)N[C@@H](Cc2ccccc2)C(=O)N[C@@H](CC(=O)O)C(N)=O)NC(=O)[C@H](CC(N)=O)NC(=O)[C@H](Cc2c[nH]c3ccccc23)NC(=O)[C@H](CCC(N)=O)NC(=O)[C@H](CC(C)C)NC(=O)[C@H](Cc2c[nH]c3ccccc23)NC1=O)C1CCCCC1
With B1, the dissociation constant Kd is 145 nM.

Consider Ac-MSDCWLQ[Phe(4-CF3)]NCPFD[dK](DOTA)-NH2 (disulfide 4-10) [Cpd #65], for which the Kd stood at 32.4 nM.

The molecule Ac-SDCWLK(DOTA)WNCPFD-NH2 (disulfide 3-9) [Cpd #87] gave an equilibrium dissociation constant (Kd) of 33.3 nM.

In the case of Ac-[Chg]SDC[1Nal]L[Ala(piperidin-4-yl)]WNCPFD[dK](DOTA)-NH2 (disulfide 4-10) [Cpd #111], the Kd stood at 1.24 nM.

Molecule Ac-MSDCW[Chg]QWNCPFD[dK](DOTA)-NH2 (disulfide 4-10) [Cpd #71] showed an equilibrium dissociation constant (Kd) of 4.52 nM.

Molecule Ac-MSDCW[Cba]QWNCPFD[dK](DOTA)-NH2 (disulfide 4-10) [Cpd #70] registered a Kd of 6.95 nM.

For Ac-MSDCW[tBuAla]QWNCPFD[dK](DOTA)-NH2 (disulfide 4-10) [Cpd #67], binding was characterised by a dissociation constant (Kd) of 4.03 nM.

With Ac-[dA][dS]DC[1Nal]LQWNCPFD[dK](DOTA)-NH2 (disulfide 4-10) [Cpd #108], the affinity, expressed as Kd, was 2.89 nM.

The molecule Ac-[Chg]SDC[1Nal]LQWNC[dNMeA]FD[dK](DOTA)-NH2 (disulfide 4-10) [Cpd #94] returned a dissociation constant Kd of 0.54 nM.

As to {DOTA-Ahx}-SDCWL[NMeQ]WNCPFD-NH2 (disulfide 3-9) [Cpd #93], the binding result is “no binding”.

B2: Cpd #91 (peptide)
peptide: Ac-SK(DOTA)CWLQWNCPFD-NH2
modifications: disulfide 3-9
SMILES: CC(=O)N[C@@H](CO)C(=O)N[C@@H](CCCCNC(=O)CN1CCN(CC(=O)O)CCN(CC(=O)O)CCN(CC(=O)O)CC1)C(=O)N[C@H]1CSSC[C@@H](C(=O)N2CCC[C@H]2C(=O)N[C@@H](Cc2ccccc2)C(=O)N[C@@H](CC(=O)O)C(N)=O)NC(=O)[C@H](CC(N)=O)NC(=O)[C@H](Cc2c[nH]c3ccccc23)NC(=O)[C@H](CCC(N)=O)NC(=O)[C@H](CC(C)C)NC(=O)[C@H](Cc2c[nH]c3ccccc23)NC1=O
Molecule B2 showed an equilibrium dissociation constant (Kd) of 95.7 nM.

Regarding Ac-[dE]SDCWLQWNCPFD[dK](DOTA)-NH2 (disulfide 4-10) [Cpd #82], the equilibrium dissociation constant (Kd) was found to be 17.1 nM.

Molecule Ac-MSDCW[Nle]QWNCPFD[dK](DOTA)-NH2 (disulfide 4-10) [Cpd #68] registered a Kd of 15.8 nM.

B3: Cpd #63 (peptide)
peptide: Ac-MSDCWLQ[hPhe]NCPFD[dK](DOTA)-NH2
modifications: disulfide 4-10
SMILES: CSCC[C@H](NC(C)=O)C(=O)N[C@@H](CO)C(=O)N[C@@H](CC(=O)O)C(=O)N[C@H]1CSSC[C@@H](C(=O)N2CCC[C@H]2C(=O)N[C@@H](Cc2ccccc2)C(=O)N[C@@H](CC(=O)O)C(=O)N[C@H](CCCCNC(=O)CN2CCN(CC(=O)O)CCN(CC(=O)O)CCN(CC(=O)O)CC2)C(N)=O)NC(=O)[C@H](CC(N)=O)NC(=O)[C@H](CCc2ccccc2)NC(=O)[C@H](CCC(N)=O)NC(=O)[C@H](CC(C)C)NC(=O)[C@H](Cc2c[nH]c3ccccc23)NC1=O
With B3, the Kd came to 31.3 nM.

B4: Cpd #98 (peptide)
peptide: Ac-[Chg]SDCWK(DOTA)QWNCPFD-NH2
modifications: disulfide 4-10
SMILES: CC(=O)N[C@H](C(=O)N[C@@H](CO)C(=O)N[C@@H](CC(=O)O)C(=O)N[C@H]1CSSC[C@@H](C(=O)N2CCC[C@H]2C(=O)N[C@@H](Cc2ccccc2)C(=O)N[C@@H](CC(=O)O)C(N)=O)NC(=O)[C@H](CC(N)=O)NC(=O)[C@H](Cc2c[nH]c3ccccc23)NC(=O)[C@H](CCC(N)=O)NC(=O)[C@H](CCCCNC(=O)CN2CCN(CC(=O)O)CCN(CC(=O)O)CCN(CC(=O)O)CC2)NC(=O)[C@H](Cc2c[nH]c3ccccc23)NC1=O)C1CCCCC1
Take B4: binding was characterised by a dissociation constant (Kd) of 93 nM.

B5: Cpd #90 (peptide)
peptide: Ac-SDCWLQWK(DOTA)CPFD-NH2
modifications: disulfide 3-9
SMILES: CC(=O)N[C@@H](CO)C(=O)N[C@@H](CC(=O)O)C(=O)N[C@H]1CSSC[C@@H](C(=O)N2CCC[C@H]2C(=O)N[C@@H](Cc2ccccc2)C(=O)N[C@@H](CC(=O)O)C(N)=O)NC(=O)[C@H](CCCCNC(=O)CN2CCN(CC(=O)O)CCN(CC(=O)O)CCN(CC(=O)O)CC2)NC(=O)[C@H](Cc2c[nH]c3ccccc23)NC(=O)[C@H](CCC(N)=O)NC(=O)[C@H](CC(C)C)NC(=O)[C@H](Cc2c[nH]c3ccccc23)NC1=O
In turn, B5 showed a Kd greater than 300 nM.

Turning to Ac-MSDCWLQ[Trp(7-aza)]NCPFD[dK](DOTA)-NH2 (disulfide 4-10) [Cpd #64], the Kd came to 20.1 nM.

Molecule {DOTA-Ahx}-SDCW[NMeL]QWNCPFD-NH2 (disulfide 3-9) [Cpd #92] yielded a Kd of 5.56 nM.

Ac-[Chg]SDC[1Nal]LQWNCPFD[dK](DOTA)-NH2 (disulfide 4-10) [Cpd #105] yielded a dissociation constant (Kd) of 0.59 nM.

Consider Ac-[dNle][dS]DC[1Nal]LQWNCPFD[dK](DOTA)-NH2 (disulfide 4-10) [Cpd #107], for which the equilibrium dissociation constant (Kd) worked out at 1.9 nM.

Consider Ac-[Chg]SDCWLQWNCPFD[dK](DOTA)-NH2 (disulfide 4-10) [Cpd #77], for which the dissociation constant (Kd) turned out to be 7.4 nM.

In turn, Ac-[Chg][dS]DC[1Nal]LQWNCPFD[dK](DOTA)-NH2 (disulfide 4-10) [Cpd #106] registered a Kd of 1.2 nM.

B6: Cpd #113 (peptide)
peptide: Ac-[Chg]SDC[1Nal]L[4Pal]WNCPFD[dK](DOTA)-NH2
modifications: disulfide 4-10
SMILES: CC(=O)N[C@H](C(=O)N[C@@H](CO)C(=O)N[C@@H](CC(=O)O)C(=O)N[C@H]1CSSC[C@@H](C(=O)N2CCC[C@H]2C(=O)N[C@@H](Cc2ccccc2)C(=O)N[C@@H](CC(=O)O)C(=O)N[C@H](CCCCNC(=O)CN2CCN(CC(=O)O)CCN(CC(=O)O)CCN(CC(=O)O)CC2)C(N)=O)NC(=O)[C@H](CC(N)=O)NC(=O)[C@H](Cc2c[nH]c3ccccc23)NC(=O)[C@H](Cc2ccncc2)NC(=O)[C@H](CC(C)C)NC(=O)[C@H](Cc2cccc3ccccc23)NC1=O)C1CCCCC1
In the case of B6, the Kd was found to be 0.89 nM.

B7: Cpd #112 (peptide)
peptide: Ac-[Chg]SDC[1Nal]L[3Pal]WNCPFD[dK](DOTA)-NH2
modifications: disulfide 4-10
SMILES: CC(=O)N[C@H](C(=O)N[C@@H](CO)C(=O)N[C@@H](CC(=O)O)C(=O)N[C@H]1CSSC[C@@H](C(=O)N2CCC[C@H]2C(=O)N[C@@H](Cc2ccccc2)C(=O)N[C@@H](CC(=O)O)C(=O)N[C@H](CCCCNC(=O)CN2CCN(CC(=O)O)CCN(CC(=O)O)CCN(CC(=O)O)CC2)C(N)=O)NC(=O)[C@H](CC(N)=O)NC(=O)[C@H](Cc2c[nH]c3ccccc23)NC(=O)[C@H](Cc2cccnc2)NC(=O)[C@H](CC(C)C)NC(=O)[C@H](Cc2cccc3ccccc23)NC1=O)C1CCCCC1
Regarding B7, the dissociation constant Kd came to 2.56 nM.
